According to patent US20210024903A1 (Pfizer, published 2021):

B1: B9-30 (antibody, V domains shown)
VH: QVQLQQPGAEVVKPGAPVKLSCKASGYPFTNYWMNWVKQRPGRGLEWIGRIDPSNSEIYYNQKFKDKATLTVDKSSSTAYIQLSSLTSEDSAVYYCASGHYGSIFAYWGQGTTLTVSS
VL: VQITQSPSYLAASPGETITINCRASKSISKYLAWYQEKPGKTNKLLIYSGSTLQSGIPSRFSGSRSGTDFTLIISSLEPEDSAMYYCQQHNEYPLTFGAGTKLELKR
B2: B9-30 mAb (antibody, V domains shown)
VH: B1 VH
VL: B1 VL

Tests used:
[1] = target: Commercial, Control Toxin B wt (List Biologicals) (Clostridium difficile, UniProt P18177 2-2366); assay: dot blot, non-denaturing
[2] = target: wild-type C. difficile toxin B (TcdB wt, from List Bio) (C. difficile strain 630, UniProt P18177 2-2366); assay: dot blot, nondenaturing
Chain of wild-type C. difficile toxin B (TcdB wt, from List Bio) (P18177 2-2366 limits assumed): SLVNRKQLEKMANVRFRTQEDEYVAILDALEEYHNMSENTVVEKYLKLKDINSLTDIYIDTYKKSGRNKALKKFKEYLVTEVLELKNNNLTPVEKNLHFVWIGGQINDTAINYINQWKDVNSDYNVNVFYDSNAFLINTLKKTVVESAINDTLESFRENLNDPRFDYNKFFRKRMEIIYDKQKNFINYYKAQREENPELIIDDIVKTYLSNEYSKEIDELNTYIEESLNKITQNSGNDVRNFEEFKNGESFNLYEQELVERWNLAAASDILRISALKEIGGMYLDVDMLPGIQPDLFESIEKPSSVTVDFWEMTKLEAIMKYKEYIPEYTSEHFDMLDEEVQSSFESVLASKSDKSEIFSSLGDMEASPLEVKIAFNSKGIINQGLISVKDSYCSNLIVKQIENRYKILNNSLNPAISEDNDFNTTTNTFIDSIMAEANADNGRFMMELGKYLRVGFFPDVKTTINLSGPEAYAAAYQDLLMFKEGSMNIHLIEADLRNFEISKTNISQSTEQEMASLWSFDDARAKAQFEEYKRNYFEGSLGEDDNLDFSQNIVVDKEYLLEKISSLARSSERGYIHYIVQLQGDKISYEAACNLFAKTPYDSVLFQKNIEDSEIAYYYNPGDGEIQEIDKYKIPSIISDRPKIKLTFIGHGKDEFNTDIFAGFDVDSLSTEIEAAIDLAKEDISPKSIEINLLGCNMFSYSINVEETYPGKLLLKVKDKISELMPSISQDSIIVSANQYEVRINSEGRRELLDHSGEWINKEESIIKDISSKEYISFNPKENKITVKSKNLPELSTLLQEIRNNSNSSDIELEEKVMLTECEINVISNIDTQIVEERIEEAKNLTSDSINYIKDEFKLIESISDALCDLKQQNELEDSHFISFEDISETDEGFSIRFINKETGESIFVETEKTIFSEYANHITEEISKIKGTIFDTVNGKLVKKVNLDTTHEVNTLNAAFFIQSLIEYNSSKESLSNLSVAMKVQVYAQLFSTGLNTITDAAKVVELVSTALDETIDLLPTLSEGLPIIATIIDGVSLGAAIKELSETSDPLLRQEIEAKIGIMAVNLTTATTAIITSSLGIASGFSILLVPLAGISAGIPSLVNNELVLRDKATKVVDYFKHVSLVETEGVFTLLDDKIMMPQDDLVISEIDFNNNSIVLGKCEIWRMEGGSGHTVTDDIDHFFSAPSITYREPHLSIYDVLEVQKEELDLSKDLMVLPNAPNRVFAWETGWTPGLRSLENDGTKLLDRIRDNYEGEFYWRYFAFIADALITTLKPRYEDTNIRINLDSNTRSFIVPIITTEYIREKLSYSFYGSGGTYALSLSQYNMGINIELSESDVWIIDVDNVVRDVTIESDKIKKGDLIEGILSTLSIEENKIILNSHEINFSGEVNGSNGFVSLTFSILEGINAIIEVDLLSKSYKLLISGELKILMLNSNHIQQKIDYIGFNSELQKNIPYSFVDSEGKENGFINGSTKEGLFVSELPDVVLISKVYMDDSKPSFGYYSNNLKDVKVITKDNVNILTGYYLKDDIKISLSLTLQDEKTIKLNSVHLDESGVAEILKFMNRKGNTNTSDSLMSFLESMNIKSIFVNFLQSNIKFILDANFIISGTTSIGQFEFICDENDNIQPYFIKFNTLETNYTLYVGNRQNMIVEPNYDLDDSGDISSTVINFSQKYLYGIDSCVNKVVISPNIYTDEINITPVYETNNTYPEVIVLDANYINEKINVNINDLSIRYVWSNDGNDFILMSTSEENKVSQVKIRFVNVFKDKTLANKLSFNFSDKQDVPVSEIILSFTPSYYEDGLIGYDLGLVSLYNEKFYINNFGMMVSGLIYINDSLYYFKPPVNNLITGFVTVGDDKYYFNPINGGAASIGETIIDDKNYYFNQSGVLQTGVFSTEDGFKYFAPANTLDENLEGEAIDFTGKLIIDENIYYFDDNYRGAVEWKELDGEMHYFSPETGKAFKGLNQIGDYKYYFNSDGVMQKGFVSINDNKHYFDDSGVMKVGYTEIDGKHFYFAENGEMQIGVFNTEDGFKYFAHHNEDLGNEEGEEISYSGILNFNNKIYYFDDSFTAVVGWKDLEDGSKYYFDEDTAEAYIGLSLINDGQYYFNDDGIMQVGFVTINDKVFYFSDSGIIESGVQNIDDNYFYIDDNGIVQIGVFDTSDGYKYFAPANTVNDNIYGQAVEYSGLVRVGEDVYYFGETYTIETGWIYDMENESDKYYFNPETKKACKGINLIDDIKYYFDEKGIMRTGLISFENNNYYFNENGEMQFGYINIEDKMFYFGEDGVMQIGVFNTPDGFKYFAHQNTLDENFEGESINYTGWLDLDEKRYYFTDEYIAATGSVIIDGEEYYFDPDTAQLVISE

Chain of Commercial, Control Toxin B wt (List Biologicals) (P18177 2-2366 limits assumed): as above

| Binder | binding result [1] | binding result [2] |
| --- | --- | --- |
| B1 | binds | – |
| B2 | – | binds |
